Data taken from patent US20230272055A1 (Incyte, published 2023).

Tests used:
[1] = biological target: T1, human mutCALR on BaF3 cells stably expressing human MPL and human mutCALR (MPL-mutCALR cells) (human); experiment: flow cytometry, BaF3 MPL-mutCALR cells
T1 construct: also called mutant calreticulin
T1 chain: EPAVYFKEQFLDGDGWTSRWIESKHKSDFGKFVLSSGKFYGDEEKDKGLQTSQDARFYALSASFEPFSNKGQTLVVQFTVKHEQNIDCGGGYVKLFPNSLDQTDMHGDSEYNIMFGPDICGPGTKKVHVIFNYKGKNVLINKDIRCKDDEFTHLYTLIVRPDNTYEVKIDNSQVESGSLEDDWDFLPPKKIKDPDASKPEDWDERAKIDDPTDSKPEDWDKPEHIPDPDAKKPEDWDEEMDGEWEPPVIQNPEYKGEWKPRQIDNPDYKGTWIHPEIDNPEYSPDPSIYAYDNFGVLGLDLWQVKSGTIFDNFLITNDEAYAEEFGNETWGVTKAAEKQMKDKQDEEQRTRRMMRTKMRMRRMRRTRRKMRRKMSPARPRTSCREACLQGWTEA
Experimental: On the day of the assay, cells were washed and resuspended in assay buffer. Approximately 200,000 cells/well were added to 96-well plates and stained with the indicated concentration of antibodies for 30 minutes on ice. Cells were then washed and stained with goat anti-human secondary conjugated to R-phycoerythrin (R-PE) (Jackson Immuno Research Laboratories) for 30 minutes on ice. The cells were then washed and analyzed by flow cytometry.

[2] = biological target: T2, human Type 1 mutCALR on Ba/F3 cells expressing MPL and Type 1 mutCALR (human); experiment: cell-based or functional assay
T2 chain: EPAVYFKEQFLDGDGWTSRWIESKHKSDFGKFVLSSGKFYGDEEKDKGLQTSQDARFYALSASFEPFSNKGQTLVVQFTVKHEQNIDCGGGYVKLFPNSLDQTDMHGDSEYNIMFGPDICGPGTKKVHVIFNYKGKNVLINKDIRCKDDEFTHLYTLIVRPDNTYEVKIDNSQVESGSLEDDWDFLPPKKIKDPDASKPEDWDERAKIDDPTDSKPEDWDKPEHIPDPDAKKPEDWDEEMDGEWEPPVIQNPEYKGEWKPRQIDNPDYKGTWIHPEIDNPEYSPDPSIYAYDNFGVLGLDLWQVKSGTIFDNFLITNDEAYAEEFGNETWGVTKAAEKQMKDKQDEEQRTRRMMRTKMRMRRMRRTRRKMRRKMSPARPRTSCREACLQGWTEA

B1: anti-mutCALR antibody clone 8 (antibody, human IgG1, lambda, V domains shown)
VH: QVQLVQSGAEVKKPGSSVKVSCKVSGYTLTELSMQWVRQAPGKGLEWMGGFDPDDGETMYAEKFQGRLTVTEDTSTDTVYMELRSLTSEDTALYFCATSPGYDFFDYWGQGTLVTVSS
VL: SYELTQPPSVSVAPGQTARITCGGNNIGSKSVHWYQQKPGQAPVLVVYDDSDRPSGIPERFSGSNSGRTATLTISRVEAGDEADYHCQVWDSSSDHLVFGGGTKLTVLG
notes: human IgG1
EC50 [1]: 4.12 µg/mL | MPL-mutCALR AUC [1]: 67400 | IC50, inhibition of pSTAT5 [2]: 0.043 µg/mL

B2: anti-mutCALR antibody clone 12 (antibody, human IgG1, lambda, V domains shown)
VH: EVQLVQSGAEVKKPGASVKVSCKVSGYTLTELSMQWVRQAPGKGLEWMGGFDPDGGETMYAEKFQGRLTVTEDTSTDTVYMELRSLTSEDTALYFCATSPGYDFFDYWGQGTLVTVSS
VL: SYVLTQPPSVSVAPGQTARVSCGGNNIGSKSVNWYRQKPGQAPVLVIYDDSDRPSGIPERFSGSNSGNTATLTINRVEAGDEADYYCQVWDSSNDLLIFGGGTKLTVLG
notes: human IgG1
EC50 [1]: 0.02 µg/mL | MPL-mutCALR AUC [1]: 61000 | IC50, inhibition of pSTAT5 [2]: 0.061 µg/mL

B3: anti-mutCALR antibody clone 9 (antibody, human IgG1, lambda, V domains shown)
VH: EVQLVQSGAEVKKPGASVKVSCKVSGYTLTELSMQWVRQAPGKGLEWMGGFDPDDGETMYAEKFQGRLTVTEDTSTDTVYMELRSLTSEDTALYFCATSPGYDFFDYWGQGTLVTVSS
VL: SYVLTQPPSVSVAPGQTARIPCGGNNIGSKSVHWYQQKPGQAPVLVVYDDRDRPSGIPERFSGSNSGNTATLTINRVEAGDEADYYCQVWDSSNDLLIFGGGTKLTVLG
notes: human IgG1
MPL-mutCALR AUC [1]: 75300 | IC50, inhibition of pSTAT5 [2]: 0.056 µg/mL

B4: anti-mutCALR antibody clone 16 (antibody, human IgG1, lambda, V domains shown)
VH: EVQLVQSGAEVKKPGASVKVSCKVSGYTLTELSMQWVRQAPGKGLEWMGGFDPDDGETMYAEKFQGRLTVTEDTSTDTVYMELRSLTSEDTALYFCATSPGYDFFDYWGQGTLVTVSS
VL: SYVLTQPPSVSVAPGKTARITCGGNNTGSKSVHWYQQKPGQAPVLVVYDDSDRPSGIPERFSGSNSGNTATLTINRVEAGDEADYYCQVWDSSNDLLIFGGGTKLTVLG
notes: human IgG1
EC50 [1]: 0.04 µg/mL | MPL-mutCALR AUC [1]: 63200 | IC50, inhibition of pSTAT5 [2]: 0.028 µg/mL

B5: anti-mutCALR antibody clone 10 (antibody, human IgG1, lambda, V domains shown)
VH: EVQLVQSGAEVKKPGASVKVSCKVSGYTLTELSMQWVRQAPGKGLEWMGGFDPDDGETMYAEKFQGRLTVTEDTSTDTVYMELRSLTSEDTALYFCATSPGYDFFDYWGQGTLVTVSS
VL: SYELTQPPSVSVAPGQTARIPCGGNNIGSEGVHWYQQKPGQAPVLVVYDDSDRPSGIPERFSGSNSGNTATLTISRVEAGDEADYYCQVWDSSNDLLIFGGGTKLTVLG
notes: human IgG1
MPL-mutCALR AUC [1]: 72100 | IC50, inhibition of pSTAT5 [2]: 0.055 µg/mL

B6: anti-mutCALR antibody clone 13 (antibody, human IgG1, lambda, V domains shown)
VH: QVQLVQSGAEVKKPGASVKVSCKVSGYTLTELSMQWVRQAPGKGLEWMGGFDPDDGETMYAEKFQGRLTVTEDTSTDTVYMELRSLTSEDTALYFCATSPGYDFFDYWGQGTLVTVSS
VL: not shown
notes: human IgG1
EC50 [1]: 0.04 µg/mL | MPL-mutCALR AUC [1]: 57700 | IC50, inhibition of pSTAT5 [2]: 0.091 µg/mL

B7: anti-mutCALR antibody clone 17 (antibody, human IgG1, lambda)
heavy: not shown
light: SYVLTQPPSVSVAPGQTARITCGGSDIGDEIVHWYQQKPGQAPVLVVYDDSDRPSGIPERFSGSNSGNTATLTISRAQAGDEADYYCQVWDSSSDHLIFGGGTKLTVLGQPKAAPSVTLFPPSSEELQANKATLVCLISDFYPGAVTVAWKADSSPVKAGVETTTPSKQSNNKYAASSYLSLTPEQWKSHRSYSCQVTHEGSTVEKTVAPTECS
notes: human IgG1
MPL-mutCALR AUC [1]: 72700 | IC50, inhibition of pSTAT5 [2]: 0.031 µg/mL

B8: anti-mutCALR antibody clone 15 (antibody, human IgG1, lambda)
heavy: not shown
light: SYELTQPPSVSVAPGKTARITCGGDNIGSKSVHWYQQKPGQAPVLVVYDDSDRPSGIPERFSGSNSGNTATLTINRVEAGDEADYYCQVWDSSNDLLIFGGGTKLTVLGQPKAAPSVTLFPPSSEELQANKATLVCLISDFYPGAVTVAWKADSSPVKAGVETTTPSKQSNNKYAASSYLSLTPEQWKSHRSYSCQVTHEGSTVEKTVAPTECS
notes: human IgG1
MPL-mutCALR AUC [1]: 87600 | IC50, inhibition of pSTAT5 [2]: 0.041 µg/mL
